This test has as its target T1, His-VIK (Arabidopsis, UniProt Q9XI87 1-438).
T1 construct: VIK, Arabidopsis, AT1G14000, N-terminal 6 x histidine tag and a full-length VIK protein; also called recombinant His-VIK; source: E. coli BL21 (DE3), purified (Ni NTA beads); not shown: His6, N-terminal, kept
T1 sequence (looked up): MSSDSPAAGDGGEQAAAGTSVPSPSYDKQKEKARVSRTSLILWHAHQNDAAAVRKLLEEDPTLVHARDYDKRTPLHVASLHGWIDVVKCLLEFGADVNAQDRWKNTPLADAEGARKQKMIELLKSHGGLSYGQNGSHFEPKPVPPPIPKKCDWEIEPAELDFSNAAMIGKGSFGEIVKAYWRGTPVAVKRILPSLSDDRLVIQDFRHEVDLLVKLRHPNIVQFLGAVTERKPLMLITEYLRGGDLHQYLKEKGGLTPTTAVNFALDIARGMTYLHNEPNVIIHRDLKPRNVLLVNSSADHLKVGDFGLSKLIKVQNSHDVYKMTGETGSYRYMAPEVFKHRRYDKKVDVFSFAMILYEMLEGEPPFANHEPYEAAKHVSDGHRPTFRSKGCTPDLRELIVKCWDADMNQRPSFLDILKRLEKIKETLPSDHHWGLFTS
The test is described as follows: pull-down; GST-LBD18 immobilised on Glutathione Beads, incubated with His-VIK or His-MBP at 4 °C for 4 h; washed five times with 1 x PBS; blot with anti-His and anti-GST. The conditions noted are these: both partners purified.

B1: GST-LBD18 (natural protein, Arabidopsis, UniProt O22131 1-262, looked up)
chain: MSGGGNTITAVGGGGGGCGGGGSSGGGGSSGGGGGGPCGACKFLRRKCVPGCIFAPYFDSEQGSAYFAAVHKVFGASNVSKLLLHIPVHRRSDAVVTICYEAQARIRDPIYGCVAHIFALQQQVVNLQAEVSYLQAHLASLELPQPQTRPQPMPQPQPLFFTPPPPLAITDLPASVSPLPSTYDLASIFDQTTSSSAWATQQRRFIDPRHQYGVSSSSSSVAVGLGGENSHDLQALAHELLHRQGSPPPAATDHSPSRTMSR
notes: the words full length are not used for this construct; also called recombinant GST-LBD18; source: E. coli BL21 (DE3), purified (Glutathione Beads); not shown: GST, N-terminal, kept
Consider B1, for which the binding result was “binds”.

Source of the values: publication PMC11434109, “VIK‐Mediated Auxin Signaling Regulates Lateral Root Development in Arabidopsis” (Advanced Science, 2024).
